Laboratory results reported in patent US20150299268A1.

Columns and labels:
FLSC R/T (HIV-1) = FLSC R/T (HIV-1) (UniProt P01730); assay: ELISA
BaL-gp120 (HIV-1 BaL) [1] = assay: ELISA
gp120-JR4-ScFV = assay: ELISA
gp120-VRC01-ScFV = assay: ELISA
gp120-b12-ScFV = assay: ELISA
gp120-JR48.1-ScFV = assay: ELISA
[2] = biological target: BaL-gp120-D78A (HIV-1 BaL); assay: capture ELISA
[3] = biological target: BaL-gp120-S334A (HIV-1 BaL); assay: capture ELISA
[4] = biological target: BaL-gp120-E31A (HIV-1 BaL); assay: capture ELISA
[5] = biological target: BaL-gp120-D62A (HIV-1 BaL); assay: capture ELISA
[6] = biological target: BaL-gp120-E47AE91A (HIV-1 BaL); assay: capture ELISA
[7] = biological target: BaL-gp120-K46A (HIV-1 BaL); assay: capture ELISA
[8] = biological target: BaL-gp120-R476AR480A (HIV-1 BaL); assay: capture ELISA
[9] = biological target: BaL-gp120-dV1 (HIV-1 BaL); assay: capture ELISA
[10] = biological target: BaL-gp120-T455A (HIV-1 BaL); assay: capture ELISA
[11] = biological target: BaL-gp120-S158A (HIV-1 BaL); assay: capture ELISA
core-V1V2-D7 (HIV-1) = assay: capture ELISA
[12] = biological target: BaL-gp120-P493A (HIV-1 BaL); assay: capture ELISA
[13] = biological target: BaL-gp120-E492A (HIV-1 BaL); assay: capture ELISA
[14] = biological target: BaL-gp120-V68A (HIV-1 BaL); assay: capture ELISA
[15] = biological target: BaL-gp120-Y39A (HIV-1 BaL); assay: capture ELISA
[16] = biological target: BaL-gp120-R58AK59A (HIV-1 BaL); assay: capture ELISA
[17] = biological target: BaL-gp120-E47A (HIV-1 BaL); assay: capture ELISA
[18] = biological target: BaL-gp120-R476A (HIV-1 BaL); assay: capture ELISA
[19] = biological target: BaL-gp120-S200A (HIV-1 BaL); assay: capture ELISA
[20] = biological target: BaL-gp120-V496A (HIV-1 BaL); assay: capture ELISA
[21] = biological target: BaL-gp120-P76A (HIV-1 BaL); assay: capture ELISA
BaL-gp120 (HIV-1 BaL) [22] = assay: capture ELISA
[23] = biological target: BaL-gp120-T499A (HIV-1 BaL); assay: capture ELISA
[24] = biological target: BaL-gp120-dV3 (HIV-1 BaL); assay: capture ELISA
core-V3-D7 (HIV-1) = assay: capture ELISA
[25] = biological target: BaL-gp120-I420R (HIV-1 BaL); assay: capture ELISA
[26] = biological target: BaL-gp120-I423A (HIV-1 BaL); assay: capture ELISA
[27] = biological target: BaL-gp120-W69A (HIV-1 BaL); assay: capture ELISA
[28] = biological target: BaL-gp120-W35A (HIV-1 BaL); assay: capture ELISA
[29] = biological target: BaL-gp120-D57A (HIV-1 BaL); assay: capture ELISA
[30] = biological target: BaL-gp120-L494A (HIV-1 BaL); assay: capture ELISA
[31] = biological target: BaL-gp120-D57AD62A (HIV-1 BaL); assay: capture ELISA
[32] = biological target: BaL-gp120-H105A (HIV-1 BaL); assay: capture ELISA
[33] = biological target: BaL-gp120-K500A (HIV-1 BaL); assay: capture ELISA
[34] = biological target: BaL-gp120-T303A (HIV-1 BaL); assay: capture ELISA
[35] = biological target: BaL-gp120-T162A (HIV-1 BaL); assay: capture ELISA
[36] = biological target: BaL-gp120-F53A (HIV-1 BaL); assay: capture ELISA
[37] = biological target: BaL-gp120-G495A (HIV-1 BaL); assay: capture ELISA
[38] = biological target: BaL-gp120-I491A (HIV-1 BaL); assay: capture ELISA
[39] = biological target: BaL-gp120-mV3 (HIV-1 BaL); assay: capture ELISA
[40] = biological target: BaL-gp120-D368R (HIV-1 BaL); assay: capture ELISA
[41] = biological target: BaL-gp120-V44A (HIV-1 BaL); assay: capture ELISA
[42] = biological target: BaL-gp120-E106AD107A (HIV-1 BaL); assay: capture ELISA
[43] = biological target: BaL-gp120-Y40A (HIV-1 BaL); assay: capture ELISA
[44] = biological target: BaL-gp120-E32A (HIV-1 BaL); assay: capture ELISA
FLSC (HIV-1) = FLSC (HIV-1) (UniProt P01730); assay: capture ELISA
[45] = biological target: BaL-gp120-W45A (HIV-1 BaL); assay: capture ELISA
[46] = biological target: BaL-gp120-Y61A (HIV-1 BaL); assay: capture ELISA
[47] = biological target: BaL-gp120-P498A (HIV-1 BaL); assay: capture ELISA
[48] = biological target: BaL-gp120-K487AK490A (HIV-1 BaL); assay: capture ELISA
[49] = biological target: BaL-gp120-K33A (HIV-1 BaL); assay: capture ELISA
[50] = biological target: BaL-gp120-D57AD78A (HIV-1 BaL); assay: capture ELISA
[51] = biological target: BaL-gp120-V75A (HIV-1 BaL); assay: capture ELISA
core-D7 (HIV-1) = assay: capture ELISA
[52] = biological target: BaL-gp120-dV2 (HIV-1 BaL); assay: capture ELISA

2G12 (antibody)
Fold of Ab needed for ELISA binding OD equal to half max on gp120 (FLSC R/T (HIV-1)): 0.91 fold
Fold of Ab needed for ELISA binding OD equal to half max on gp120 (BaL-gp120 (HIV-1 BaL) [1]): 1 fold
Fold of Ab needed for ELISA binding OD equal to half max on gp120 (gp120-JR4-ScFV): 0.61 fold
Fold of Ab needed for ELISA binding OD equal to half max on gp120 (gp120-VRC01-ScFV): 0.66 fold
Fold of Ab needed for ELISA binding OD equal to half max on gp120 (gp120-b12-ScFV): 0.56 fold
Fold of Ab needed for ELISA binding OD equal to half max on gp120 (gp120-JR48.1-ScFV): 0.58 fold
% Binding [2]: 87%
% Binding [3]: 16%
% Binding [4]: 80%
% Binding [5]: 86%
% Binding [6]: 86%
% Binding [7]: 92%
% Binding [8]: 83%
% Binding [9]: 93%
% Binding [10]: 87%
% Binding [11]: 80%
% Binding (core-V1V2-D7 (HIV-1)): 100%
% Binding [12]: 93%
% Binding [13]: 93%
% Binding [14]: 82%
% Binding [15]: 89%
% Binding [16]: 88%
% Binding [17]: 96%
% Binding [18]: 98%
% Binding [19]: 92%
% Binding [20]: 96%
% Binding [21]: 90%
% Binding (BaL-gp120 (HIV-1 BaL) [22]): 100%
% Binding [23]: 100%
% Binding [24]: 100%
% Binding (core-V3-D7 (HIV-1)): 86%
% Binding [25]: 93%
% Binding [26]: 94%
% Binding [27]: 87%
% Binding [28]: 99%
% Binding [29]: 91%
% Binding [30]: 79%
% Binding [31]: 105%
% Binding [32]: 89%
% Binding [33]: 92%
% Binding [34]: 88%
% Binding [35]: 87%
% Binding [36]: 99%
% Binding [37]: 93%
% Binding [38]: 92%
% Binding [39]: 100%
% Binding [40]: 82%
% Binding [41]: 93%
% Binding [42]: 79%
% Binding [43]: 93%
% Binding [44]: 93%
% Binding (FLSC (HIV-1)): 104%
% Binding [45]: 92%
% Binding [46]: 81%
% Binding [47]: 93%
% Binding [48]: 83%
% Binding [49]: 83%
% Binding [50]: 95%
% Binding [51]: 89%
% Binding (core-D7 (HIV-1)): 100%
% Binding [52]: 82%

A32 (antibody)
Fold of Ab needed for ELISA binding OD equal to half max on gp120 (FLSC R/T (HIV-1)): 0.04 fold
Fold of Ab needed for ELISA binding OD equal to half max on gp120 (BaL-gp120 (HIV-1 BaL) [1]): 1 fold
Fold of Ab needed for ELISA binding OD equal to half max on gp120 (gp120-JR4-ScFV): > 100 fold
Fold of Ab needed for ELISA binding OD equal to half max on gp120 (gp120-VRC01-ScFV): 0.2 fold
Fold of Ab needed for ELISA binding OD equal to half max on gp120 (gp120-b12-ScFV): 0.06 fold
Fold of Ab needed for ELISA binding OD equal to half max on gp120 (gp120-JR48.1-ScFV): 0.1 fold

PG04 (antibody)
Fold of Ab needed for ELISA binding OD equal to half max on gp120 (BaL-gp120 (HIV-1 BaL) [1]): 1 fold
Fold of Ab needed for ELISA binding OD equal to half max on gp120 (gp120-JR4-ScFV): 0.26 fold
Fold of Ab needed for ELISA binding OD equal to half max on gp120 (gp120-b12-ScFV): > 100 fold
Fold of Ab needed for ELISA binding OD equal to half max on gp120 (gp120-JR48.1-ScFV): 0.36 fold

PG9 (antibody)
Fold of Ab needed for ELISA binding OD equal to half max on gp120 (FLSC R/T (HIV-1)): 8.02 fold
Fold of Ab needed for ELISA binding OD equal to half max on gp120 (BaL-gp120 (HIV-1 BaL) [1]): 1 fold
Fold of Ab needed for ELISA binding OD equal to half max on gp120 (gp120-JR4-ScFV): 0.02 fold
Fold of Ab needed for ELISA binding OD equal to half max on gp120 (gp120-VRC01-ScFV): 0.09 fold
Fold of Ab needed for ELISA binding OD equal to half max on gp120 (gp120-b12-ScFV): 0.06 fold
Fold of Ab needed for ELISA binding OD equal to half max on gp120 (gp120-JR48.1-ScFV): 0.07 fold

PGT128 (antibody)
Fold of Ab needed for ELISA binding OD equal to half max on gp120 (FLSC R/T (HIV-1)): 5.07 fold
Fold of Ab needed for ELISA binding OD equal to half max on gp120 (BaL-gp120 (HIV-1 BaL) [1]): 1 fold
Fold of Ab needed for ELISA binding OD equal to half max on gp120 (gp120-JR4-ScFV): 0.13 fold
Fold of Ab needed for ELISA binding OD equal to half max on gp120 (gp120-VRC01-ScFV): 0.23 fold
Fold of Ab needed for ELISA binding OD equal to half max on gp120 (gp120-b12-ScFV): 0.09 fold
Fold of Ab needed for ELISA binding OD equal to half max on gp120 (gp120-JR48.1-ScFV): 0.14 fold
